The nature of the data set: soluble on expression in E. coli; label from the status in PepcDB or PDB records.
On to “METMTELNTKEMKLDALLKDMQSVVIAFSGGVDSSLLLKKAIDILGVNYVKPVVVKSELFRNEEFELALKLGQSLGVEVLETEMSELQDANIVKNTPESWYYSKRLMYSQLENIKNKLGFNYVLDGMIMDDLDDFRPGLKARDDFGVRSVLQEAKLYKSEVRELSHQHDLPVWNKPALCSLASRIPYGEELSFTKVNKVNEAEKFILSLGINHVRVRYHHNIARIEVTEDQLNNLLKLKDSIILHLKELGFDYVTMDLEGYRTGSMNEIIDTKSTSFK”, for which the “soluble on expression in E. coli” value is listed as “not soluble”.

For “METPKLSVEAIEKGTVIDHIPAGRGLTILRQFKLLHYGNAVTVGFNLPSKTQGSKDIIKIKGVCLDDKAADRLALFAPEAVVNTIDNFKVVQKRHLNLPDEIAEVFRCPNTNCAGHGEPVKSRFYVKKHNGQTRLKCHYCEKTYSRDSVAEA”, the “soluble on expression in E. coli” value is recorded as “not soluble”.

Turning to “METRLLVLKYDILNREAICLNRETHELLHANLVESVQPQIGQFLAVENLKIVQIDGVCFISPECGTIVIEPPAPEDCVILPKEKTDVVMFKSWIGFSSDPSHLTYDRNIGYADWYGPVNCSQFKAKNTKVAFFKYLIAVNDLDYKNTGECLMKAVQLVGVIDNRDAAEVRLKMMEFERKRIADIQRTTKQTRLIETVAYPILPSAHQPSSNHSYTGRSSCDSLRPQPVPAARKLSEQPQTVQNQAPYREQINQQRSVTNSIYGEFSGVGRTDQPLETANSRGSTEYYSGRSSSSSDQVIRNEPQLPNPAPILPESMGMVTYENGIMQIVYLRSVQKAAIHYWSKHQITTSLGSVFNCSFKPIPVQATTHWAPFEITAINNVNNEKNEVKTVGKECFALFKVDLSRPEGKFSKWTTIGGNPIFSCEIVGYVMLAHSVLGPQQNQLSILNVAQNYYNRKVAENICCFCRFVRRQVPRMMVDSHWISEDEEVEVFIWELVEIVGASELYRKRQEQLEIGNLGDTADNVKRHNDDIEMQKKRAQQEHFAQQQRPAGSSNSYQTENAQQHSMSNNMQYYHSQAPPVSSRSSISLGETAEFKNKLERTNDMMESLCDAIKKFLDNRQLKETLRGYNPRRLQALEEKLKECSEHLENN”, the “soluble on expression in E. coli” value is “not soluble”.

For the sequence “METVPGGRWVAEIYGCDVDILEDPKMVEAALVDAVMRLGAPRDSVQSVVYKFHPQGLSAAVVSPVAAVMIHTWPEDNASATLDLYFYRDGVDPEEVLKGLTRAFGAKEESAFRYWRGTEHAIKRRGFGAEKAE”, the “soluble on expression in E. coli” value is “soluble”.

Take “MEVLVIAPRICVNVIRTLPIGLPVGVEKRLRAFDPDVIHLASPYAFAARAAFIAQKMAVPCVAVYQTDVAAYQQHYHLTWLKNLEHHHHHH”: the “soluble on expression in E. coli” value was “not soluble”.

As to “MEVPEIEKQIGINLYSTDTTGLGGQLRQEIEDFIVKEITNREEGEEGKYLIVELTKRDWDTHHLTRTLSRILQVSQKRISVAGTKNKRALTTQKISIFDTDASEIEKIHLKDIELKVLGRSRKSVELGDLWGNDFRITVRNIENSPEETEALLKKTTDEILAQGGVPNFFGIQRFGSVRPVTHLVGKAIVEGNFEKAALLYIAEPFPEEPEETKNARQFVKDTLDFKEGLKTYPLRLGHERAMMNHLIANPEDYSGSFRVLPQNLYRMFVHGYQSYIYNIILCRRIEAGIPLNRAVEGDIVCFRNEVGLPDSSKTEKVTSETVNAMNRLLKLGRAFITAPLPGYNTEFASGIPGEIENGVLKELGVSLEGFNIEKFPEMSSKGTRREVLLEVKPKFEAGEDELNPGKSKAVLEFMLPKGSYATTVLREYMKVNPLQMSLEHHHHHH”, the “soluble on expression in E. coli” value is given as “soluble”.

As to “MEVQTETYRAAMNGTLERHFSDMIAVIPTRITIEQLKQRLENIATKVDELKIVYSDETSLIVELHMDETIIPYELHIDEANDPEEYKMYNRQDSTIVDRNFEDAAFGTEIFTRTLFVGDVLDCFFQQIQFLWNLAPDLLFVIDSSAAMKVISRNYIEYHVENELLPDIPDLYVIHSVYEDDKEGEPTQYWFHTHGLLRAGVTEIELIIPNRISSYYGIGDLFQTFANNAVENGQVPMNEPIVIAHSQQGSIHTVAVPWEKGLSYIGHKTSMDQLSSIEDEEVKLQPIDAQNTFLGGMDARDEYHQSPSVLLFKFNTSEEYIESFFKEHEEATGLMFYKTNSETDRMAYNAKNTFGYFSNIFQIEKSNEEFRFLAKFGVSYEEGKSEHMWFEMQHITEDLIQGILINEPYFIEDMSEGNSYHLDFDNLTDWVIYAGDAVIKPNNLYMFIGE”, the “soluble on expression in E. coli” value is recorded as “not soluble”.

Consider “MEVYIPSFRYEESDLERGYTVFKIEVLMNGRKHFVEKRYSEFHALHKKLKKCIKTPEIPSKHVRNWVPKVLEQRRQGLETYLQAVILENEELPKLFLDFLNVRHLPSLPKAESCGSFDETESEESSKLSHQPVLLFLRDPYVLPAASDFPNVVIEGVLHGIFYPHLQPR”, for which the “soluble on expression in E. coli” value is recorded as “soluble”.

For the sequence “MEYFNVGKIVNTQGLQGEMRVLSVTDFVEERFKKGQVLALFDEKNQFVMDIEIASHRKQKNFDIIKFKGMYHINDIEKYKGFTLKVAEDQLSDLKDGEFYYHEIIGLDVYEGEELIGKIKEILQPGANDVWVVERHGKRDLLLPYIPPVVLEVDLSNQRVQVELMEGLDDEDLEHHHHHH”, the “soluble on expression in E. coli” value is “soluble”.

Consider “MFAGCATYAGLNFDQLFGPQLVRERTASVETPQADFFQREVKPIVDNRCVVCHACYDAPCQLKLSSVEGIDRGASKALVYEGTRLTAAAPTRLFEDAETTQEWRDAGFHPVLNERDQSMAANLEAGLIARLLQQKERHPLPDQVQLEGFDFSIDREQTCPTIEEYEQYEKDNPNWGMPFGMPNLTNSEYHTLMTWLENGAIMNMHTPISDQEQAKINQYETLLNHSDLKNQLMSRYIYEHLFLSHLYFSELSEKPRFFTLVRSATPPGQPVKRISTRRPYDDPGVERVYYRIIPEQGTIVDKTHMPFALNKQRISNWKKWFIEADYSVTQLPSYEPEVAANPMTAFIDMPVKSRFKFMLDNAQNTIMAYIKGPVCRGQLALNVINDRFWVFFLDPDKADIPEVNEFYRSQADNLKLPAEQESNTLPVTNWVKYARQQARYLEAKSEFTNNWFKHGENLSTDVIWDGNGTNPNAALTVFRHFDSASVVQGLVGEQPKTVWILDYALLERIHYLLVAGFDVYGNFGHQLMTRMFMDFLRLEGESNFVTLLPADMRHQLQSSWYQDQSPQLSDFLQRNVKPFNQPTSVVYKTDDPKTELLNMMRKRLSPVLLPRYEITDTALSDKTEKELKRIGQVRGEGLQTVPQITMLMVRSKSGKDELFTLLHNNAHTNISSLFDEESNRDFANDDMTIVRGVVGSYPAAFFSLKENQVKEFVDQFSAIQNEADYVKLLDSFAIRRSSEKFWPFSDRIHNWYRTNQPIEFGLLDYNRFENR”, for which the “soluble on expression in E. coli” value is “not soluble”.

Take “MFCKRFIALVTMLTLVCSMLLPYSNASAETGSALNIEAGAAILVEANSGKILYQKNADELLSIASMTKMMSEYLVHEAVDKGKFKWDQKIKVSEYAYKVSQDASLSNVALENGGSYTVKELYEAMAIFSANGATIALAEAIAGKEVDFVKMMNDKSKELGLKNYKFVNSTGLTNKDLKGMHPEGTTADEENKMSAKDVATLAQHLIKDYPKVLDTAKIPKKEFRPEKEKFAMSNWNWMLKGLVKEYDGVDGLKTGSTPEAGDCFTGTVERNGMRFISVVIKTSSHTARFDETKKLYDYGFANFEMKQMYKKGSSVKGQETVRVENAKDKDVAVQTKQAISLPVPKGSKEVYKTELKESSKGQEAPIKKGAALGQMVITPKDTNDPGFLTGKSLQVDLVTTSEVEEANWFTRAMRGIGSFFSGIWNSAVDTVKGWF”: the “soluble on expression in E. coli” value is reported as “not soluble”.

“MFCTLAGYRWLNSGSLLRRLSQRAVRRLPTAPLCHLHNGATESAASNGALRIVDEKVAYRRYATVFERTVQYPDGRHVTYDILGQPAVQSASVLVFPFDTQSKTCYVIREYCPGPNRVLYGFPAGMVETKHESLEAAARAELSEEAHLRCAQLIDLTAQAAVWERSFEVPNTASDAENCLRGFFADKYSRNVCKMYLALNPEPDGHPGSMDAEELIEQVGAVRVPQLEAWLWSGQMTMPHMLLAMCALTYLRQRGMLT”: the “soluble on expression in E. coli” value was “not soluble”.

As for “MFDIGFSELLLVFVIGLIVLGPQRLPVAVKTVAGWIRALRSLATTVQNELTQELKLQEFQDSLKKVEKASLENLTPELKASMDELRQAAESMKRTYSANDPEQASDEAHTIHNPVVKGNETQHEGVTPAAAETQASAPEQKPEPVKANVPESTETASVATIDAEKKSAAPVVESSPSSSDKPLEHHHHHH”, the “soluble on expression in E. coli” value is given as “not soluble”.

Take “MFEKVIKLWRDTFPKSEHKLMSIEYVAAIEEFNEYFPGYAAMNDSNYSKLQHFFRSLHPIGCIKPFRFHYSSAFALENSLDDYLLKNAQFKRDGLAGEWAIHIFADHNDHIIEKYRMYKKKRLEKLERTFEERKKKAER”: the “soluble on expression in E. coli” value is listed as “not soluble”.

As to “MFKPELLSPAGTLKNMRYAFAYGADAVYAGQPRYSLRVRNNEFNHENLQLGINEAHALGKKFYVVVNIAPHNAKLKTFIRDLKPVVEMGPDALIMSDPGLIMLVREHFPEMPIHLSVQANAVNWATVKFWQQMGLTRVILSRELSLEEIEEIRNQVPDMEIEIFVHGALCMAYSGRCLLSGYINKRDPNQGTCTNACRWEYNVQEGKEDDVGNIVHKYEPIPVQNVEPTLGIGAPTDKVFMIEEAQRPGEYMTAFEDEHGTYIMNSKDLRAIAHVERLTKMGVHSLKIEGRTKSFYYCARTAQVYRKAIDDAAAGKPFDTSLLETLEGLAHRGYTEGFLRRHTHDDYQNYEYGYSVSDRQQFVGEFTGERKGDLAAVAVKNKFSVGDSLELMTPQGNINFTLEHMENAKGEAMPVAPGDGYTVWLPVPQDLELNYALLMRNFSGETTRNPHGK”, the “soluble on expression in E. coli” value is “not soluble”.

On to “MFKVNEYFDGTVKSIAFSQAEGQATIGVMAAGEYEFGTAQREIMHVISGELNVKLPDSTDWETFSTGSQFNVPANSKFQLKVSVDTAYLCEYR”, for which the “soluble on expression in E. coli” value is “not soluble”.

For the sequence “MFLKILPRIRRPTRSYAAVLAARHEGFAKVMQSDLMAFENFLGQDAVKKDDITNHTTDWTGQFKGPGSVVLYPKSTEEVSAILAYCSKNKLAVVPQGGNTGLVGGSIPVHDEVVISMNKINKQFSFDDTMGILKCDSGFILEDLDNKLAKLGYMMPFDLGAKGSCQIGGNIATCAGGIRLIRYGSLHAHLLGLTVVLPDEHGTVLHLGSSIRKDNTTLHTPHLFLGSEGQLGVITSVTMTAVPKPKSVQSAMLGIESFKKCCEVLKLAKSSLTEILSSFELLDDATMECLKTNLGLHPVLNAPTPFSILVETSGSNEDHDMEKMSAFLDECLSKNLIIDGVLAGSSAEATKMWQLRESAPLAVTRDGYVYKHDVSLPLENYYELTNVMKERCGSLAKRIVTYGHLGDGNTHLNITSEKHNEELEKLLYPFLYEWVVDHGGSISAEHGIGQLKLPYSTFGKDPEERLLTKKLKNIFDPNGILNPYKTI”, the “soluble on expression in E. coli” value is listed as “not soluble”.

As for “MFLVTGATGDIGRRVIRLLREHNHSVRGFARLTSRYGELEHRGANIFIGDLRREQDIEKACQGVQYIISAHGSDNDALTLDYRANIALIDQAKANGVQHFVFISVLGAERGYEDAPVFKAKRAVENYLAASGLNYTILRPAGLASNLLPLAERFRETGLYLLIGDPKNRTSIVSTDDLARIVVDSVTVPEARNQIFSVGGPEILLREDIPQIFSHIFKKEPIVVNSPLLVIDGLRGVLGLINPEAQQALGTFRTLLSNEFFCRKDEIAKLEQTFNFPLETLESFLRRYLAVLEHHHHHH”, the “soluble on expression in E. coli” value is given as “not soluble”.

With “MFMGKLPHQADLIGALIEAAGANGIRAGAIQVIGALQGAKLGFYDQWSKSYRELPFAKPLEIVSGLGNISLRDGRPFVHLHLSISDEEGKVFGGHALEGCTIFAAEYAIMPLPGSAPVRVFDETTGLFLWEREQYPASGQKGLSPELERALLNPLEHHHHHH”, the “soluble on expression in E. coli” value is “soluble”.

For “MFPILETDRLILRQITDQDAEAIFACFSNDEVTRYYGLENMESIEQAISMIQTFAALYQEKRGIRWGIERRDTKELIGTIGFHALAQKHRRAEIGYEIIPEHWRNGFASEVISKVVSYGFSALGLSRIGAVVFTDNEASNRLLLKMGFQKEGVLRQYMYSKWDSI”, the “soluble on expression in E. coli” value is “not soluble”.

For the origin of these results see the DeepSol protein solubility set.
